Laboratory results: the RNAGym collection of RNA variant scans (doi:10.7554/elife.80360)

B1: Hammerhead Ribozyme (parent)
chain: ACCGGAUGUGCUUUCCGGUCUGAUGAGUCCGUGAGGACGAAACAG

Variants of: B1
Experiment: self-cleavage, relative activity (ratio to wild type); higher = more cleavage; co-transcriptional

Row | Variant | self-cleavage
1 | ACCGGAUGUGCUUUCCGGUCUGAUGAGUCCGGGAGGACGAACCAG | 0.275
2 | ACCGGAUGUGCUUUCCGAUCUAAUGAGUCCGUGAGGACGAAACAG | 0.276
3 | ACCGGAUGCGCUUUCCGUUCUGAUGAGUCCGUGAGGACGAAACAG | 0.738
4 | ACCGGAUGUGCUUUGCGGUCUGAUGAGUCCGUGAGGACGACACAG | 0.398
5 | ACCGGAUGUGCUUUCCGGUCUGAUGAGUACCUGAGGACGAAACAG | 0.683
6 | AACGGAUGUGCUUUCCGGUCUGAUGAGUCCGUGAGGACGAAACCG | 0.425
7 | ACCGGAUGUGCUUUCCGGUCUGAUGAGUCAGUGAGGACUAAACAG | 0.418
8 | ACCGGAUGUGCUUUCCGGUCUGAUGAGUCCGUGAGAACGAAACCG | 0.31
9 | ACCGGAUGUGCUUUCCGGUCCGAUGAGUCCGUGAGGACGAAAAAG | 0.216
10 | ACCGGAUGUGCUUUCCGGUCUGAUGAGUCUGUGAGGACGAAACCG | 0.632
11 | ACCGGAUGUGCUUUCCGGUCUCAUGGGUCCGUGAGGACGAAACAG | 0.253
12 | ACCGGAUGUGCUUUCCGGUCUGAUGAGUCAGGGAGGACGAAACAG | 0.892
13 | ACCGGAUGUCCUUUCCGGUCUGAUGAAUCCGUGAGGACGAAACAG | 0.887
14 | ACCGGAUGUGCUUUCAGGUCUGAUGAGUCCGUGAGGACCAAACAG | 0.337
15 | ACCGGAAGUGCUAUCCGGUCUGAUGAGUCCGUGAGGACGAAACAG | 1.42
16 | ACCGGAUGUGCUUUCCGGUCUGCUGAGUCCGUGAGUACGAAACAG | 0.335
17 | ACCGGAUGUGCUUUCCGGUCUGAUGAGUCCGUGCGGACGAAUCAG | 0.322
18 | ACCGGAUGUGCUUUCCGGCCUGAUGAGUCCGUGAGGCCGAAACAG | 0.668
19 | ACCGGAUGUGCUUUUCGGUCUGAUGAGUACGUGAGGACGAAACAG | 0.686
20 | ACCGGAUGGGCUUUCCGGUCUGAUGAGUCCGUAAGGACGAAACAG | 0.988
21 | ACCGGAUGUGCGUUCGGGUCUGAUGAGUCCGUGAGGACGAAACAG | 0.714
22 | ACCCGAUGUGCUUUCCGGUCUGAUGAGUCCGUGAGGACAAAACAG | 0.326
23 | ACCGGAUGUGCUUUCCGGUCUGUUGAGUCCGUGAGGUCGAAACAG | 0.272

Row | Variant | self-cleavage
24 | ACCGGAUGUGCUUUCCGGGCUGAUGAGUCCGUGAGGACGAAACGG | 0.623
25 | ACCGGAUGUGCUGUCCGGUCUGAUAAGUCCGUGAGGACGAAACAG | 0.367
26 | AUCGGAUGUGCUUUCCGGUCUGAUGAGUCCGUGAGGACGAACCAG | 0.358
27 | ACCGGAUGUGCUUUCCGGUCUGAUGAGUCGGUGAGGCCGAAACAG | 0.337
28 | ACCGGAUGUGCUUUCCGGCCUGAUGAGUCCGUGAGGACGAAACCG | 0.325
29 | ACAGGAUGUGGUUUCCGGUCUGAUGAGUCCGUGAGGACGAAACAG | 0.562
30 | ACCGGAGGUGCUUUCCAGUCUGAUGAGUCCGUGAGGACGAAACAG | 0.666
31 | ACCGGAUGGGCUUUCCGGUCUGAUGAGUCCGUGAGAACGAAACAG | 0.57
32 | ACCGGAUGUGCUUUCCGGUCUGACGAGUCGGUGAGGACGAAACAG | 0.613
33 | AUCGGAUGUGCUUUCCGGUCUGAUGAGUCCCUGAGGACGAAACAG | 0.974
34 | ACCUGAUGUGAUUUCCGGUCUGAUGAGUCCGUGAGGACGAAACAG | 0.502
35 | CCCGGAUGUGCUUUCCGGUCUGAUGAGUCCGUGAAGACGAAACAG | 0.404
36 | ACCGGAUGUGCUUUCCGGUCUGAUGAGUCCGUGAGGACGAAAUGG | 0.586
37 | ACCGGAUGAGCUUUCCGGUCUGAUGAGUCCGUGAGGAAGAAACAG | 0.755
38 | ACCGCAUGCGCUUUCCGGUCUGAUGAGUCCGUGAGGACGAAACAG | 0.63
39 | ACCGGAUGUGCUUUCCGGUCGGAUGAGUCCGUGAGGACGACACAG | 0.404
40 | UCCGGAUGUGCAUUCCGGUCUGAUGAGUCCGUGAGGACGAAACAG | 0.66
41 | ACCGGAUGUGCUAUCCGGUCUGAUGAGUCCGUGAGGACGAAACAA | 0.883
42 | ACCGGAUGAGCAUUCCGGUCUGAUGAGUCCGUGAGGACGAAACAG | 1.23
43 | ACCGGAUGCGCUUUCCGGUCUGAUGAGUCCGUGAGGACAAAACAG | 0.313
44 | ACCGGAUGUGCUUUCCGGUCUGAUGAGACCGUGACGACGAAACAG | 0.435
45 | ACCGGAUGUGCUUUCCGGUCUGAUGAGUCCGUAAGCACGAAACAG | 0.58
46 | ACCGGAUGUGCUUGCCGUUCUGAUGAGUCCGUGAGGACGAAACAG | 0.522

Row | Variant | self-cleavage
47 | ACCGGAUGUGCUUUCCGGUCUGAUGAGUCCGUGAGGACCAAACAG | 0.455
48 | ACCGGAUGUGCUUACCGGUCUGAUGAGUCCGGGAGGACGAAACAG | 0.989
49 | ACCGGAUGUGCUUGCCGGUCUGAUGAGUACGUGAGGACGAAACAG | 0.677
50 | ACCGGAUGUGCAUUACGGUCUGAUGAGUCCGUGAGGACGAAACAG | 0.979
51 | ACCGGAUGUGCUUUCCGGUCUGAUGAGUGCGAGAGGACGAAACAG | 0.847
52 | ACCGGAUGUGCUUUCCGGUCUGAUGAGUCGGUGAGGACGAAACGG | 0.769
53 | ACCGGAUGUGCGUUCCGGUCUGAUGAGUCCGUGAGGACGAAAGAG | 0.181
54 | ACCGGAUGUGUUUUCCGGUCUGAUGAGUCCGUGAGGCCGAAACAG | 0.987
55 | ACCGGAUGUGCUUUCCGGUCUGAGGAGUACGUGAGGACGAAACAG | 0.447
56 | ACCGGAUGUGCUUUCCGGACGGAUGAGUCCGUGAGGACGAAACAG | 0.314
57 | ACCGGAUGUGCUUUCCGGUCUGAUGAGUCCGUGAGGUCGAAACUG | 0.417
58 | CCCGGAUGUGGUUUCCGGUCUGAUGAGUCCGUGAGGACGAAACAG | 0.395
59 | ACCGGAUGUGCUUUCCAGUCUGAUGAGUCCGUGAGGACGAAACAA | 0.413
60 | ACCGUAUGUGCUUUCCGGUCUGAUGAGUCCGUGAUGACGAAACAG | 0.516
61 | ACCGGAUGUGCUUUCCGGCCUGAUGAGUCCGUGAGGACGAACCAG | 0.237
62 | ACUAGAUGUGCUUUCCGGUCUGAUGAGUCCGUGAGGACGAAACAG | 0.387
63 | ACAGGAUGUGCUUUCCGGUCUGAUGAGUGCGUGAGGACGAAACAG | 0.397
64 | GCCGGAUGUGCAUUCCGGUCUGAUGAGUCCGUGAGGACGAAACAG | 1.63
65 | ACCGGAUGUGCUUUCCGGUUUGAUGAGUCCGUGAGGACGAAACAG | 0.697
66 | GCCGGAUUUGCUUUCCGGUCUGAUGAGUCCGUGAGGACGAAACAG | 1.65
67 | ACCGGAUGUGCUUUCCGGUCUGAUGAGUCCGUGAGGCAGAAACAG | 0.535
68 | ACCGGCUGUGCUUUCCGGGCUGAUGAGUCCGUGAGGACGAAACAG | 0.269
69 | ACCGGAUGUGCUUUCCGGUCUGAUGAGUCCGCGAGGUCGAAACAG | 0.752

Row | Variant | self-cleavage
70 | ACCGGAUGUGCUUCCCGGUCUGGUGAGUCCGUGAGGACGAAACAG | 0.268
71 | ACCGGAUGUGCUUUCCGGUCUGAUGAGUCCAUGAGGACGAAAAAG | 0.329
72 | ACCGGAUGUGGUUUCCGGUCAGAUGAGUCCGUGAGGACGAAACAG | 0.735
73 | ACCGGAGGUGCUUUCCGGCCUGAUGAGUCCGUGAGGACGAAACAG | 0.512
74 | ACCGGAUGUGCUUUCCGGUCAGAUGAGUGCGUGAGGACGAAACAG | 0.354
75 | ACCGGGUGUGCUUUCCGGUCUGAUGAGUCCUUGAGGACGAAACAG | 0.945
76 | ACCGGAUGCGCUGUCCGGUCUGAUGAGUCCGUGAGGACGAAACAG | 0.946
77 | ACCGGAUGUGCUUUCCGGUCUGAUUAGUCCGUGAGGAUGAAACAG | 0.37
78 | ACCGGAUGUGCUUUCCGGUCUGAUUAGUCCGUGAGGAGGAAACAG | 0.382
79 | ACUGGAUGUGAUUUCCGGUCUGAUGAGUCCGUGAGGACGAAACAG | 1.16
80 | ACCUGAUGUGCUUUCCGUUCUGAUGAGUCCGUGAGGACGAAACAG | 0.323
81 | ACCGGAUGUGCUUUCCGGUCUGAUGAGUCCGUGCGGACUAAACAG | 0.404
82 | ACCGGAUCUGCUUUCCGGUCUGAUGAGUCCGUCAGGACGAAACAG | 0.867
83 | ACCGGAUGUGCUUUCCUGUCUGCUGAGUCCGUGAGGACGAAACAG | 0.32
84 | ACCGGAUGUGCUUUCCGGUCAGAUGAGUCCGUGAGUACGAAACAG | 0.418
85 | ACCGGUUGUGCUUUCCGGUCUGAUCAGUCCGUGAGGACGAAACAG | 0.259
86 | ACCAGAUGUGCUUUCCGGUCUGAUGAGUCCAUGAGGACGAAACAG | 0.641
87 | ACCGGAGCUGCUUUCCGGUCUGAUGAGUCCGUGAGGACGAAACAG | 1.37
88 | ACCGGAUGUGCUUUCCGGUGUGGUGAGUCCGUGAGGACGAAACAG | 0.386
89 | ACCGGAUGUGCUUUCCGGUCUGAUGAGUCCGGGAGGACGAAACAG | 0.769
90 | ACCGGAAGUGCUUUCCGGUCUGAUGAGUCCGUGAGGCCGAAACAG | 1.12
91 | ACCCGAUGUGCUGUCCGGUCUGAUGAGUCCGUGAGGACGAAACAG | 0.962
92 | ACCGGAUGUGCUUUCAGGUCUGAUGAGUCCGUGAGGGCGAAACAG | 0.874

Row | Variant | self-cleavage
93 | ACCGGAUGUGCUUUCCGGUCUGAUGAGUCCGUGAGCACCAAACAG | 0.335
94 | ACCGGAUGUGCUUUCCGGUCUGAUGAGUCGGUGAGGACGAUACAG | 0.266
95 | ACCGGAUGUGCUUUCGGGUCUGAUGAGUCCGUGAGGACGAAACGG | 1.18
96 | ACCGGAUACGCUUUCCGGUCUGAUGAGUCCGUGAGGACGAAACAG | 1.33
97 | ACCGGAUGUGCUUUCCGGUCUGAUGAGUACGUGAGGACGAAACAG | 0.708
98 | ACCGGAGGUACUUUCCGGUCUGAUGAGUCCGUGAGGACGAAACAG | 1.72
99 | ACCGGAUGUGCUUUCCGGUCUGAUGAGUCCGUGCGGACGAAACAC | 0.441
100 | ACCGGAUGUGCUUUCCGGUCUGAUGAGUCCGUGAGGAUGAAAUAG | 0.34
101 | ACCGGUUGUGCUUUCCGGUCUGAUGAGUCCGUGAGGACGAAACAC | 0.39
102 | ACCGGAUGUGCUUUCCGGUCUGAUCAGUUCGUGAGGACGAAACAG | 0.235
103 | ACCGGAUGUGCUUUCAGGUCUGAUGAGUCCGUGAGAACGAAACAG | 0.523
104 | ACCGGAUGUGCUUUCCGGUCUGAUGAGUCCGUGAGUACUAAACAG | 0.333
105 | ACCGGAUGUGCUUUCCGAUCUGGUGAGUCCGUGAGGACGAAACAG | 0.361
106 | ACCGGAUGUGCUUUGCGGUCUGAUGGGUCCGUGAGGACGAAACAG | 0.364
107 | AGCGGAUGUGCUUUCCGGUCUGAUGAGUCCGUGAGGACGACACAG | 0.271
108 | ACCGGAUGUACUUUCCGGUCUGAUGAGUCCGUGACGACGAAACAG | 0.763
109 | ACCGGAUGUGCUUUCCGGUCUGCUGAGUCCGUGAGGACGAAAAAG | 0.343
110 | ACCGGAUUUGCUUUCCGGUCUGAUGAGUCCGUGAGGACGACACAG | 0.324
111 | ACCGGAUGUGCUUUCCGGUCUGAUGAGUCCAUGAUGACGAAACAG | 0.875
112 | AUCGGAUGUGCUUUCCAGUCUGAUGAGUCCGUGAGGACGAAACAG | 0.392
113 | ACCGGAUGUGCUUUCCUGUCUGAUGAGUCCGUGAGGACGAAAGAG | 0.291
114 | ACCGGAUGUGCUUUCCGGUCUGAUGAGUCCGUGAGGACGCAAGAG | 0.33
